Data on 125 sequences can be found in the supplement of paper PMC9112550, “Optimization of the antimicrobial peptide Bac7 by deep mutational scanning” (BMC Biology, 2022).

The series concerns Escherichia coli TOP10. Briefly: shrunken log2 fold change of peptide-encoding DNA abundance (4.5 h post-induction vs induction); higher = less antimicrobial activity (less host growth inhibition). The following applies: time post-induction: 4.5 h; library: site-saturation at positions 5, 18, 19, 20.
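Also: peptides expressed intracellularly from a pBAD plasmid library in pooled LB shake-flask culture, induced with 0.3% L-arabinose, DNA abundance read by NGS, three biological replicates, DESeq2 with apeglm shrinkage.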

As for RRIRVRPPRLPRPRPRPAEIPRP, the “shrunken log2 fold change” value was -0.0984. Regarding RRIRMRPPRLPRPRPRPLTRPRP, the “shrunken log2 fold change” value was determined as 0.608. On to RRIRYRPPRLPRPRPRPRMQPRP, for which the “shrunken log2 fold change” value was -0.673. Then RRIRPRPPRLPRPRPRPSATPRP, with 0.195. Regarding RRIRHRPPRLPRPRPRPRIWPRP, the “shrunken log2 fold change” value came to 0.242. Then RRIRSRPPRLPRPRPRPAILPRP, with -0.313; and RRIRARPPRLPRPRPRPNTCPRP, with 0.136. The figure for RRIRLRPPRLPRPRPRPEWVPRP is 0.36; for RRIRPRPPRLPRPRPRPMMIPRP it is 0.0824.

Turning to RRIRMRPPRLPRPRPRPAFTPRP, the “shrunken log2 fold change” value was 0.251. RRIRIRPPRLPRPRPRPRRMPRP: the “shrunken log2 fold change” value is -0.12.

With RRIRTRPPRLPRPRPRPGCPPRP, the “shrunken log2 fold change” value was determined as 0.086. Then RRIRYRPPRLPRPRPRPLCPPRP, with -0.397; and RRIRWRPPRLPRPRPRPQYLPRP, with -0.12. As for RRIRTRPPRLPRPRPRPDVMPRP, the “shrunken log2 fold change” value was -0.00136. The figure for RRIRERPPRLPRPRPRPLAHPRP is -0.368; for RRIRIRPPRLPRPRPRPVVSPRP it is -0.503. With RRIRIRPPRLPRPRPRPDAEPRP, the “shrunken log2 fold change” value stood at 0.874. The figure for RRIRHRPPRLPRPRPRPVWMPRP is -0.243; for RRIRCRPPRLPRPRPRPQPEPRP it is 0.13. Then RRIRWRPPRLPRPRPRPRFCPRP, with 0.234.

With RRIRWRPPRLPRPRPRPMFNPRP, the “shrunken log2 fold change” value was -0.156.

Regarding RRIRFRPPRLPRPRPRPHRLPRP, the “shrunken log2 fold change” value came out at 0.0835.

As to RRIRSRPPRLPRPRPRPMFRPRP, the “shrunken log2 fold change” value is -0.338.

As for RRIRWRPPRLPRPRPRPNYMPRP, the “shrunken log2 fold change” value is -0.385. Then RRIRFRPPRLPRPRPRPWYNPRP, with -0.134. Then RRIRGRPPRLPRPRPRPVLFPRP, with 0.752; and RRIRYRPPRLPRPRPRPGVYPRP, with -0.0135; and RRIRSRPPRLPRPRPRPYERPRP, with -0.0323. Then RRIRKRPPRLPRPRPRPHSAPRP, with 0.246; and RRIRRRPPRLPRPRPRPYTRPRP, with 0.000194. For RRIRLRPPRLPRPRPRPFLEPRP, the “shrunken log2 fold change” value was -0.106. Then RRIRKRPPRLPRPRPRPTQFPRP, with 1.1.

As to RRIRPRPPRLPRPRPRPSWVPRP, the “shrunken log2 fold change” value was 0.0466.

In the case of RRIRMRPPRLPRPRPRPYEWPRP, the “shrunken log2 fold change” value was -0.0304. Then RRIRGRPPRLPRPRPRPWKVPRP, with -0.00197.

RRIRARPPRLPRPRPRPMTWPRP: the “shrunken log2 fold change” value was 0.307. Then RRIRFRPPRLPRPRPRPECDPRP, with 0.248; and RRIRHRPPRLPRPRPRPSTIPRP, with -0.0522. The figure for RRIRGRPPRLPRPRPRPGKWPRP is 0.566. Take RRIRTRPPRLPRPRPRPTENPRP: the “shrunken log2 fold change” value was -0.293. Consider RRIRKRPPRLPRPRPRPAIQPRP, for which the “shrunken log2 fold change” value came out at 0.396. Then RRIRIRPPRLPRPRPRPCCAPRP, with -0.172; and RRIRLRPPRLPRPRPRPAHPPRP, with 0.522. Then RRIRIRPPRLPRPRPRPVLFPRP, with -0.357; and RRIRRRPPRLPRPRPRPQDLPRP, with 0.0389; and RRIRWRPPRLPRPRPRPTIPPRP, with -0.109. The figure for RRIRFRPPRLPRPRPRPDNMPRP is -0.748; for RRIRCRPPRLPRPRPRPCRIPRP it is -0.271. Take RRIRPRPPRLPRPRPRPCWRPRP: the “shrunken log2 fold change” value turned out to be 0.00714. The figure for RRIRKRPPRLPRPRPRPKNCPRP is 0.0646; for RRIRRRPPRLPRPRPRPPIFPRP it is 0.16; for RRIRYRPPRLPRPRPRPQMIPRP it is 0.0722. Then RRIRCRPPRLPRPRPRPYIMPRP, with -1.48; and RRIRMRPPRLPRPRPRPGTNPRP, with 1.55; and RRIRHRPPRLPRPRPRPSHHPRP, with -0.267. Then RRIRCRPPRLPRPRPRPDSNPRP, with -0.488. With RRIRYRPPRLPRPRPRPHQYPRP, the “shrunken log2 fold change” value was -0.402. Then RRIRMRPPRLPRPRPRPQTCPRP, with 0.0193; and RRIRSRPPRLPRPRPRPVAIPRP, with -0.28.

With RRIRFRPPRLPRPRPRPWIWPRP, the “shrunken log2 fold change” value was determined as 0.0425. The figure for RRIRTRPPRLPRPRPRPGQLPRP is 0.226; for RRIRRRPPRLPRPRPRPEPCPRP it is 0.388; for RRIRLRPPRLPRPRPRPAIMPRP it is -0.16. The figure for RRIRGRPPRLPRPRPRPLLEPRP is 1.39; for RRIRFRPPRLPRPRPRPLVIPRP it is -0.78; for RRIRQRPPRLPRPRPRPHILPRP it is -0.361. Turning to RRIRPRPPRLPRPRPRPYYSPRP, the “shrunken log2 fold change” value is -0.246. Then RRIRTRPPRLPRPRPRPCMMPRP, with -0.52; and RRIRVRPPRLPRPRPRPWKDPRP, with -0.00963. Then RRIRNRPPRLPRPRPRPWFEPRP, with -0.879; and RRIRFRPPRLPRPRPRPRPFPRP, with 0.401; and RRIRFRPPRLPRPRPRPGHAPRP, with 0.192. Then RRIRRRPPRLPRPRPRPVQKPRP, with 0.223; and RRIRDRPPRLPRPRPRPCIFPRP, with 0.168; and RRIRGRPPRLPRPRPRPRGIPRP, with 1.23. With RRIRKRPPRLPRPRPRPALGPRP, the “shrunken log2 fold change” value was 0.0812.

As to RRIRSRPPRLPRPRPRPCWMPRP, the “shrunken log2 fold change” value was -0.0635. The figure for RRIRVRPPRLPRPRPRPAELPRP is 0.175; for RRIRGRPPRLPRPRPRPCVFPRP it is 0.664.

Consider RRIRYRPPRLPRPRPRPCTWPRP, for which the “shrunken log2 fold change” value was -0.303.

With RRIRPRPPRLPRPRPRPISCPRP, the “shrunken log2 fold change” value is -0.0606.

RRIRFRPPRLPRPRPRPMITPRP: the “shrunken log2 fold change” value is -0.33. Then RRIRARPPRLPRPRPRPLEEPRP, with 1.04; and RRIRQRPPRLPRPRPRPHRHPRP, with -0.284. The figure for RRIRYRPPRLPRPRPRPQFIPRP is -1.19; for RRIRYRPPRLPRPRPRPAIGPRP it is -0.105. Regarding RRIRYRPPRLPRPRPRPQWQPRP, the “shrunken log2 fold change” value was -0.00114. Take RRIRQRPPRLPRPRPRPTNVPRP: the “shrunken log2 fold change” value was -0.302. As to RRIRQRPPRLPRPRPRPTEGPRP, the “shrunken log2 fold change” value was -0.0332.

For the sequence RRIRIRPPRLPRPRPRPADPPRP, the “shrunken log2 fold change” value was -0.071. Take RRIRMRPPRLPRPRPRPLFQPRP: the “shrunken log2 fold change” value is -0.279. Regarding RRIRIRPPRLPRPRPRPPDYPRP, the “shrunken log2 fold change” value is -0.0646. Then RRIRCRPPRLPRPRPRPEFCPRP, with 0.0369. Then RRIRPRPPRLPRPRPRPYSIPRP, with -0.0708. Take RRIRQRPPRLPRPRPRPQTRPRP: the “shrunken log2 fold change” value was -0.0472.

Consider RRIRSRPPRLPRPRPRPYNQPRP, for which the “shrunken log2 fold change” value is -0.642. Then RRIRKRPPRLPRPRPRPLQYPRP, with -0.0563; and RRIRMRPPRLPRPRPRPIQIPRP, with -0.155; and RRIRVRPPRLPRPRPRPRGSPRP, with 0.527.

Take RRIRGRPPRLPRPRPRPDIFPRP: the “shrunken log2 fold change” value was determined as 0.837. Then RRIRVRPPRLPRPRPRPKATPRP, with 0.266; and RRIRGRPPRLPRPRPRPAASPRP, with 0.947; and RRIRNRPPRLPRPRPRPISMPRP, with -0.0881.

Take RRIRHRPPRLPRPRPRPKNTPRP: the “shrunken log2 fold change” value is -0.497.

Turning to RRIRYRPPRLPRPRPRPPLCPRP, the “shrunken log2 fold change” value was -0.173. In the case of RRIRTRPPRLPRPRPRPGVCPRP, the “shrunken log2 fold change” value was 0.442. For the sequence RRIRVRPPRLPRPRPRPHTSPRP, the “shrunken log2 fold change” value was -0.643. Then RRIRVRPPRLPRPRPRPWCGPRP, with 0.0506; and RRIRFRPPRLPRPRPRPWPCPRP, with -0.229. Then RRIRIRPPRLPRPRPRPNLPPRP, with -0.173; and RRIRYRPPRLPRPRPRPPQEPRP, with 1.9; and RRIRVRPPRLPRPRPRPVFQPRP, with -0.092.

RRIRMRPPRLPRPRPRPWMTPRP: the “shrunken log2 fold change” value turned out to be 0.0698. The figure for RRIRCRPPRLPRPRPRPSFGPRP is -0.496; for RRIRHRPPRLPRPRPRPDLHPRP it is -0.0566. RRIRFRPPRLPRPRPRPHWYPRP: the “shrunken log2 fold change” value is -0.343. For the sequence RRIRKRPPRLPRPRPRPEIGPRP, the “shrunken log2 fold change” value was determined as 0.191. The figure for RRIRDRPPRLPRPRPRPNIEPRP is -0.00164; for RRIRPRPPRLPRPRPRPMKAPRP it is 0.0531; for RRIRRRPPRLPRPRPRPFKAPRP it is 0.182.

For RRIRQRPPRLPRPRPRPSAGPRP, the “shrunken log2 fold change” value amounted to 0.0717. Then RRIRHRPPRLPRPRPRPDEPPRP, with 0.197; and RRIRERPPRLPRPRPRPPTCPRP, with -0.0707; and RRIRKRPPRLPRPRPRPQNPPRP, with 0.0671.
